“Also recorded” adds a separate entry of the source. Where two headings read alike, the source gives them in different places.
Experiments:
[1] = tested on: Hoxa9-Meis1 immortalized AML model cells; assay: Growth deficit of construct-transduced AML cells versus non-transduced cells in same well; assay type: cell-based, murine; details: for Activity: activity based upon growth deficit versus non-transduced cells in same well, constructs retrovirally transduced into AML cells
[2] = biological target: Sin3; assay: method not stated
[3] = tested on: Mac-1 (CD11b), Gr-1 and FLT3R expression; assay: Flow cytometry of cell surface markers after transduction; assay type: cell-based, murine; details: 30 days
[4] = tested on: differentiation-specific genes (S100A8, myeloperoxidase, neutrophil elastase); assay: QPCR of differentiation-specific genes in transduced Hoxa9-Meis1 cells; assay type: cell-based; details: Hoxa9-Meis1 murine cells, versus vector control
[5] = tested on: Hoxa9-Meis1 murine AML cells; assay type: in vivo, mice; details: for Median Survival days: mouse, in vivo; for AML latency in vivo: versus vector control
[6] = tested on: Hoxa9 target genes (SOX4, CD34, FLT3R, FOXP1, DNAJC10); assay: QPCR of direct Hoxa9 target genes in Hoxa9/Meis1 cells; details: 17 days after transduction, versus GFP control
[7] = listed as 3X glycine linker repressor construct
[8] = Hoxa9-Meis1 cells, retroviral expression

Molecule: S2 mutant: S2 with DNA base contact residues of HFP domain mutated to alanine, SEQ ID NO: 32 (DPERQVKAWFAARRAKMKKINGGDPVSQVSAWFGAKRIAYKKNI)
- growth phenotype (growth deficit / growth inhibition) [1]: less growth inhibition

Molecule: wild-type SID (Sin3-interacting domain of Mad1 protein) (from UniProt Q05195 5-29) (peptide)
- Kd [2]: 70 nM

B1: S3: Full SID-3XNLS-HFP with GGG linker, SEQ ID NO: 30 / 35 (protein)
chain: MATAVGMNIQLLLEAADYLERREREAEHGYASMLPYDPKKKRKVDPKKKRKVDPKKKRKVGGDPERQVKIWFQNRRMKMKKINGGGDPVSQVSNWFGNKRIRYKKNIG
- cell-surface expression of myeloid differentiation markers Mac-1 and Gr-1 [3, 7]: increases in cell-surface expression of myeloid differentiation markers
- surface expression of Flt3 receptor [3, 7]: decreased surface expression
- cell-surface expression of myeloid differentiation markers Mac-1 and Gr-1 ([3]; listed as repressor HFP): increases expression of Gr-1 and Mac-1 differentiation markers
- surface expression of Flt3 receptor ([3]; listed as repressor HFP): decreases expression of Flt3 receptor
- mRNA levels of differentiation-specific genes [4]: higher mRNA levels
- mRNA levels of differentiation-specific genes [4, 7]: mRNA upregulation of differentiation-specific genes
- mRNA levels of differentiation-specific genes ([4]; listed as repressor): elevates differentiation-specific genes
- Median Survival days [5]: 94 days
- AML latency in vivo [5]: longer latency in vivo that was statistically significant
- AML latency in vivo ([5]; listed as HFP repressor): significantly longer latency
- AML latency in vivo ([5]; listed as repressor): longer latency
- growth phenotype (growth deficit / growth inhibition) [1, 8]: more growth deficit
- growth phenotype (growth deficit / growth inhibition) ([1]; Hoxa9-Meis1 cells, retroviral expression, listed as HFP): significant growth defects
- Activity [1]: ✓
- HFP-expressing cells as % of the population ([1]; by day 8, IRES GFP vector, GFP vector control 80%): 2%
- transcripts of Hoxa9 target genes [6]: suppresses multiple targets of Hoxa9; also recorded: suppresses transcripts of Hoxa9 target genes
- transcripts of Hoxa9 target genes [6, 7]: suppression of direct Hoxa9 transcriptional target genes

B2: S3 mutant: S3 with DNA base contact residues mutated to alanine, SEQ ID NO: 33 (HFP domain) / 46 (protein)
chain: MATAVGMNIQLLLEAADYLERREREAEHGYASMLPYDPKKKRKVDPKKKRKVDPKKKRKVGGDPERQVKAWFAARRAKMKKINGGGDPVSQVSAWFGAKRIAYKKNIG
- growth phenotype (growth deficit / growth inhibition) [1, 8]: less growth inhibition
- transcripts of Hoxa9 target genes ([6]; listed as mutant construct): little to no repression

B3: S1: SID-3XNLS-GG linker-HoxA9-G-PBX fusion protein, SEQ ID NO: 28 (protein)
chain: MATAVGMNIQLLLEAADYLERREREAEHGYASMLPYDPKKKRKVDPKKKRKVDPKKKRKVGGDPERQVKIWFQNRRMKMKKINGDPVSQVSNWFGNKRIRYKKNIG
- Median Survival days [5]: 62 days

B4: Fusion protein 3: SID-3XNLS-HFP, SID of SEQ ID NO: 12, SEQ ID NO: 38 (protein)
chain: MVGMNIQLLLEAADYLERREREAEHGGDPKKKRKVDPKKKRKVDPKKKRKVGGDPERQVKIWFQNRRMKMKKINGGGDPVSQVSNWFGNKRIRYKKNIG
- Activity [1]: ✓

B5: Fusion protein 10: HFP-3XNLS-Full SID, SEQ ID NO: 45 (protein)
chain: DPERQVKIWFQNRRMKMKKINGGGDPVSQVSNWFGNKRIRYKKNIGGGDPKKKRKVDPKKKRKVDPKKKRKVATAVGMNIQLLLEAADYLERREREAEHGYASMLPY
- Activity [1]: ✓

B6: Fusion protein 4: SID-3XNLS-HFP, SID of SEQ ID NO: 13, SEQ ID NO: 39 (protein)
chain: MVGMNIQLLLEAADYLERRERGGDPKKKRKVDPKKKRKVDPKKKRKVGGDPERQVKIWFQNRRMKMKKINGGGDPVSQVSNWFGNKRIRYKKNIG
- Activity [1]: ✓

B7: S2: SID-3XNLS-GG linker-HoxA9-GG-PBX fusion protein, SEQ ID NO: 29 (protein)
chain: MATAVGMNIQLLLEAADYLERREREAEHGYASMLPYDPKKKRKVDPKKKRKVDPKKKRKVGGDPERQVKIWFQNRRMKMKKINGGDPVSQVSNWFGNKRIRYKKNIG
- Median Survival days [5]: 67 days
- growth phenotype (growth deficit / growth inhibition) [1, 8]: more growth deficit

B8: S4: SID-3XNLS-GG linker-HoxA9-GGGG-PBX fusion protein, SEQ ID NO: 31 (protein)
chain: MATAVGMNIQLLLEAADYLERREREAEHGYASMLPYDPKKKRKVDPKKKRKVDPKKKRKVGGDPERQVKIWFQNRRMKMKKINGGGGDPVSQVSNWFGNKRIRYKKNIG
- Median Survival days [5]: 69 days
